Assay [1] deals with PD-L1 (human) (UniProt Q9NZQ7). Put plainly: flow cytometry, CHO cells expressing PD-L1.
In another assay the target is human CTLA-4 (human) (UniProt P16410). Put plainly: flow cytometry, CHO cells expressing CTLA4. (In flow cytometry, cells or beads pass a laser one at a time.)
Assay [2] deals with CD28 (human) (UniProt P10747). Kind of assay: flow cytometry, Jurkat cells (CD28).
Assay [3] addresses CD28 (human) (UniProt P10747).
For assay [4], the target named is PD-L1 (human) (UniProt Q9NZQ7).

human CTLA-4 (human), sequence (P16410 36-223): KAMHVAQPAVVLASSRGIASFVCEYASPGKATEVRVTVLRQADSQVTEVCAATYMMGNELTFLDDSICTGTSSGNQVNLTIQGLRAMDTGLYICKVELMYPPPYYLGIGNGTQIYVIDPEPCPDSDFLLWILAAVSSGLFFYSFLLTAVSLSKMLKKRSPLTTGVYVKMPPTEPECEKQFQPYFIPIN
PD-L1 (human), sequence (Q9NZQ7 19-290): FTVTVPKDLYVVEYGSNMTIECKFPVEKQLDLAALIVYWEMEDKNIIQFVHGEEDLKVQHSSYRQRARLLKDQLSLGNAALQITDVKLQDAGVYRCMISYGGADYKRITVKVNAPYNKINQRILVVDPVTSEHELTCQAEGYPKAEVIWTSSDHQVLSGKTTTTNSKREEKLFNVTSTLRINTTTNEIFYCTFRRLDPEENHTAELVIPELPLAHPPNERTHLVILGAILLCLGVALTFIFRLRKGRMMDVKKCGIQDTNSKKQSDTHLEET

With “CD80 E35D/M47V/V68M/L85M/Y87D IgV-Fc (Fc fusion)”, the MFI at 33.3 nM came out at 1720 MFI in the assay with PD-L1 (human) [1] and 13900 MFI with human CTLA-4 (human).

In the case of “CD80 S21P/E35D/K37E/D46E/M47I/V68M/R94L IgV-Fc (Fc fusion)”, the MFI at 33.3 nM with human CTLA-4 (human) is 20100 MFI; with CD28 (human) [2], 284 MFI.

For “CD80 Q27L/Q33L/E35D/T41S/M47V/N48K/V68M/L85M IgV-Fc (Fc fusion)”, the Fold change to WT CD80 with PD-L1 (human) [1] came out at 320 fold; with CD28 (human) [2] it was 0.5 fold. The MFI at 33.3 nM in the assay with PD-L1 (human) [1] is 16500 MFI; in the assay with human CTLA-4 (human), 178 MFI; with CD28 (human) [2] it was 15 MFI.

As to “CD80 E35D/D46E/M47L/V68M/T79M/L85M/L97Q IgV-Fc (Fc fusion)”, the Fold change to WT CD80 in the assay with PD-L1 (human) [1] is 89.7 fold; in the assay with CD28 (human) [2] it was 0.5 fold. Also, the figures for the MFI at 33.3 nM with PD-L1 (human) [1], with human CTLA-4 (human) and with CD28 (human) [2] were 4620 MFI, 96 MFI and 14 MFI, respectively.

On to “CD80 T13R/Q27L/Q33L/E35D/T41S/M47V/N48K/V68M/L85M IgV-Fc (Fc fusion)”, for which the Fold change to WT CD80 in the assay with PD-L1 (human) [1] is 63.5 fold; with CD28 (human) [2], 0.5 fold. In addition, the MFI at 33.3 nM was 3270 MFI with PD-L1 (human) [1], 109 MFI with human CTLA-4 (human) and 14.6 MFI with CD28 (human) [2].

For the substance “CD80 H18Y/E35D/M47L/Y53F/V68M/A71G/K93R/E95V IgV-Fc (Fc fusion)”, the figures for the MFI at 33.3 nM in the assay with PD-L1 (human) [1], in the assay with human CTLA-4 (human) and with CD28 (human) [2] were 23400 MFI, 18400 MFI and 334 MFI, respectively. Further, the Fold change to WT CD80 in the assay with human CTLA-4 (human) was 10.5 fold.

For “CD80 Q33L/E35D/M47V/T62S/V68M/L85M IgV-Fc (Fc fusion)”, the MFI at 33.3 nM with human CTLA-4 (human) amounted to 86 MFI; with CD28 (human) [2], 15 MFI.

For the substance “CD80 E35D/D46E/M47I/T62A/V68M/L85M/Y87C IgV-Fc (Fc fusion)”, the MFI at 33.3 nM with human CTLA-4 (human) was found to be 17000 MFI.

Regarding “CD80 E35D/M38T/D46E/M47V/N48S IgV-Fc (inert) (Fc fusion)”, the Jurkat/IL2 reporter RLU at 50 nM, K562/OKT3/PD-L1 aAPC in the assay with CD28 (human) [3] and in the assay with PD-L1 (human) [4] was 1320 RLU each time.

As for “CD80 V22D/E35D/M47L/L85Q IgV-Fc (inert) (Fc fusion)”, the Jurkat/IL2 reporter RLU at 50 nM, K562/OKT3/PD-L1 aAPC in the assay with CD28 (human) [3] and with PD-L1 (human) [4] was 1140 RLU each time.

As to “CD80 T13R/Q33R/E35D/M38I/M47L/V68M/L85M/R94Q IgV-Fc (Fc fusion)”, the MFI at 33.3 nM in the assay with PD-L1 (human) [1] was 20400 MFI; in the assay with human CTLA-4 (human), 19100 MFI; with CD28 (human) [2], 15.2 MFI.

As to “CD80 E35D/D46E/M47V/A71D IgV-Fc (inert) (Fc fusion)”, the Jurkat/IL2 reporter RLU at 50 nM, K562/OKT3/PD-L1 aAPC with CD28 (human) [3] and in the assay with PD-L1 (human) [4] was 683 RLU each time.

On to “CD80 E35D/M47V/N48K/V68M/K89N IgV-Fc (inert) (Fc fusion)”, for which the Jurkat/IL2 reporter RLU at 50 nM, K562/OKT3/PD-L1 aAPC with CD28 (human) [3] and with PD-L1 (human) [4] was 1440 RLU each time.

Take “CD80 E35D/M47I/Y87Q/K89E IgV-Fc (inert) (Fc fusion)”: the Jurkat/IL2 reporter RLU at 50 nM, K562/OKT3/PD-L1 aAPC with CD28 (human) [3] and with PD-L1 (human) [4] was 1580 RLU throughout.

Regarding “CD80 V22D/E24D/E35D/M47V/V68M IgV-Fc (Fc fusion)”, the MFI at 33.3 nM with human CTLA-4 (human) was determined as 16900 MFI; with CD28 (human) [2], 191 MFI.

With “CD80 E35D/T41S/M47V/A71G/K89N IgV-Fc (inert) (Fc fusion)”, the Jurkat/IL2 reporter RLU at 50 nM, K562/OKT3/PD-L1 aAPC in the assay with CD28 (human) [3] and in the assay with PD-L1 (human) [4] was 1020 RLU each time.

Regarding “CD80 E35D/A71G IgV-Fc (inert) (Fc fusion)”, the Jurkat/IL2 reporter RLU at 50 nM, K562/OKT3/PD-L1 aAPC with CD28 (human) [3] and with PD-L1 (human) [4] was 1190 RLU throughout.

With “CD80 E35D/M47V/A71G/E88D IgV-Fc (inert) (Fc fusion)”, the Jurkat/IL2 reporter RLU at 50 nM, K562/OKT3/PD-L1 aAPC with CD28 (human) [3] and with PD-L1 (human) [4] was 1220 RLU in each case.

As to “CD80 E35D/Y53H/A71G/D90G/L97R IgV-Fc (inert) (Fc fusion)”, the Jurkat/IL2 reporter RLU at 50 nM, K562/OKT3/PD-L1 aAPC with CD28 (human) [3] and with PD-L1 (human) [4] was 1720 RLU in each case.

In the case of “CD80 I30V/E35D/M47V/A71G/A91V IgV-Fc (inert) (Fc fusion)”, the Jurkat/IL2 reporter RLU at 50 nM, K562/OKT3/PD-L1 aAPC with CD28 (human) [3] and with PD-L1 (human) [4] was 1500 RLU in each case.

In the case of “CD80 T13R/Q33R/E35D/M38I/M47L/V68M IgV-Fc (Fc fusion)”, the Fold change to WT CD80 with PD-L1 (human) [1] stood at 87 fold. The MFI at 33.3 nM in the assay with PD-L1 (human) [1] amounted to 4480 MFI; with human CTLA-4 (human), 193 MFI; with CD28 (human) [2] it was 13.8 MFI.

For “CD80 H18Y/E35D/M38I/M47L/V68M/L85M IgV-Fc (Fc fusion)”, the Fold change to WT CD80 was found to be 69.7 fold with PD-L1 (human) [1] and 0.5 fold with CD28 (human) [2]. Also, the MFI at 33.3 nM in the assay with PD-L1 (human) [1] amounted to 3590 MFI; with human CTLA-4 (human) it was 139 MFI; in the assay with CD28 (human) [2], 16.7 MFI.

“CD80 E35D/T41S/M43I/M47L/A71G IgV-Fc (inert) (Fc fusion)”: the Jurkat/IL2 reporter RLU at 50 nM, K562/OKT3/PD-L1 aAPC with CD28 (human) [3] and in the assay with PD-L1 (human) [4] was 1540 RLU throughout.

“CD80 E35D/K37E/M47V/N48D/L85Q/D90N IgV-Fc (inert) (Fc fusion)”: the Jurkat/IL2 reporter RLU at 50 nM, K562/OKT3/PD-L1 aAPC in the assay with CD28 (human) [3] and with PD-L1 (human) [4] was 851 RLU each time.

The values are drawn from US20220177587A1, “METHODS AND USES OF VARIANT CD80 FUSION PROTEINS AND RELATED CONSTRUCTS” (Alpine Immune Sciences, Inc., priority 2018, published 2022).
